Results published in patent US20090214574A1 (AFFIMED, published 2009).

B1: human anti-CD16A scFv 50NI (scFv)
scFv: EVQLVQSGAEVKKPGESLKVSCKASGYTFTSYYMHWVRQAPGQGLEWMGIINPSGGSTSYAQKFQGRVTMTRDTSTSTVYMELSSLRSEDTAVYYCARGSAYYYDFADYWGQGTLVTVSSGSASAPTLKLEEGEFSEARVSYELMQPPSVSVSSGQTASIPCSGDKLEEKYVSWYQQRPGQSPVLVIYQDNKRPSGIPERFSGSNSGNTATLTISGTQAMDEADYYCQVWDNYSVLFGGGTKLTVLGQPKAAPSVTLFPPSAAAGSEQKLISEEDLNSHHHHHH
notes: also called clone 50NI; parental clone
B2: affinity matured anti-CD16A scFv 4-LS21 (scFv)
scFv: EVQLVQSGAEVKKPGESLKVSCKASGYTFTSYYMHWVRQAPGQGLEWMGIINPSGGSTSYAQKFQGRVTMTRDTSTSTVYMELSSLRSEDTAVYYCARGSAYYYDFADYWGQGTLVTVSSGSASAPTLKLEEGEFSEARVQPVLTQPSSVSVAPGQTATISCGGHNIGSKNVHWYQQRPGQSPVLVIYQDNKRPSGIPERFSGSNSGNTATLTISGTQAMDEADYYCQVWDNYSVLFGGGTKLTVLGQPKAAPSVTLFPPSAAAGSEQKLISEEDLNSHHHHHH
notes: IMAC-purified from pSKK2

What was measured:
[1] = biological target: T1, human CD16A-Fc^48R/158V fusion protein (human, UniProt P08637 17-208, limits assumed); experiment: SPR, BIAcore 2000, CD16A-Fc immobilized on CM5, koff/kon
T1 construct: Secreted soluble fusion made in HEK-293 cells; also called CD16-Fc; CD16A Fc-fusion protein; not shown: Fc portion of human IgG1
Method: (§1) The affinity constants (KD values) of the scFv were determined by SPR using the BIAcore 2000 biosensor system (Amersham-Pharmacia). The CD16A-Fc fusion protein and BSA used as a negative control were immobilized on the carboxymethyldextran-coated sensor chip CM5 using conventional NHS/EDC chemistry for the amine coupling procedure (BIAcore). Purified scFvs were diluted in HBS-EP buffer (BIAcore, Uppsala, Sweden). Binding data was generated by passing varying concentrations of the scFv antibodies (100 nM, 200 nM, 400 nM, 800 nM and 1600 nM) over the immobilized antigen. […] All SPR measurements were performed at a constant flow rate of 20 μL/min in HBS-EP buffer at 25° C. Each injected sample (100 μl) was in contact with antigen for 5 minutes. The dissociation was followed for 30 minutes. After each cycle, the surface of the sensor chip was flushed with HBS-EP buffer. Signals from the control channel coated with BSA were automatically subtracted. Kinetic constants were calculated according to the 1/1 Langmuir binding model using the BIAevaluation version 3.0 software (BIAcore).

[2] = biological target: T2, NKp46 extracellular domain fused to zeta chain, on transiently transfected HEK-293 cells (293/NKp46) (human, UniProt O76036 22-258; P20963 31-164); experiment: flow cytometry on 293/NKp46 cells; scFv, anti-hexa His MAb 13/45/31-2, FITC goat anti-mouse IgG; MFI minus secondary reagents alone
T2 construct: extracellular domain;domain: transmembrane and cytoplasmic domain; On the cell surface; also called NKp46-transfectants; pcDNA3-NKp46-zeta
Method: (§2) The mean fluorescence intensities obtained from flow cytometric analysis were corrected by subtracting the fluorescence values from cell stainings with the secondary reagents alone, and plotted in the diagram.
(§3) For flow cytometric analysis, the following cell lines were used: BW and BW/CD16A transfectants were cultured as described previously. […] The transient transfections were performed using the calcium phosphate method as described in Example 1 and were used for flow cytometric staining and analysis two days after transient transfection. Flow cytometric staining and analysis was performed as essentially described before.

[3] = biological target: T3, native CD16B on human polymorphonuclear cells (neutrophilic granulocytes) (human, UniProt O75015 17-200); experiment: flow cytometry on freshly isolated PMN; scFv, anti-(His)6 MAb, FITC goat anti-mouse IgG; MFI minus secondary reagents alone
T3 construct: whole, on cells; also called PMN; CD16B-positive granulocytes
Method: Polymorphonuclear cells (PMN) and natural killer (NK) cells were isolated from peripheral blood from a healthy donor and used for flow cytometric staining and analysis. […] All scFv were used at a concentration of 50 μg/mL and were detected with 10 μg/mL anti-(His)₆ followed by 15 μg/mL FITC-conjugated goat anti-mouse IgG. The mean fluorescence intensities obtained from flow cytometric analysis were corrected by subtracting the fluorescence values from cell stainings with the secondary reagents alone and were plotted in the diagram.
Enrichment of NK cells was performed by negative selection as described above.

[4] = biological target: T1, human CD16A-Fc^48R/158V fusion protein; experiment: SPR, steady state analysis (column Keq)
Method: as §1

[5] = biological target: T4, commercially available recombinant CD16B (Allele NA-2; BSA free; RD Systems) (UniProt O75015 17-200, limits assumed); experiment: ELISA, recombinant CD16B coated at 80 nM
T4 construct: also called recombinant CD16B-Fc
Method: (§4) FIG. 3: ELISA on recombinant CD16A-Fc and CD16B. Recombinant CD16A-Fc and CD16B proteins were coated at 80 nM in 0.1 M NaHCO₃, pH 8.8. Wells were blocked with PBS, 2% skimmed milk. The binding of the scFv to the recombinant proteins and to gp34-Fc (negative control) was detected using an anti-c-Myc-HRP conjugate (10 μg/ml). […] Coated recombinant CD16B was directly detected by staining with an anti-His-HRP (1 μg/mL) and coating of the Fc-Fusion proteins was tested by an anti-human IgG-HRP conjugate (0.5 μg/mL). As HRP-substrate, 50 μL of TMB were used. After termination of the reaction with 50 μL 0.5 M H₂SO₄, absorbance was measured at 450 nm.
(§5) In order to generate further supporting data concerning the CD16A specificity of the scFvs, an ELISA was performed using the CD16A-Fc fusion protein (Example 1) and commercially available recombinant CD16B-Fc (Allele NA-2; BSA free; RD Systems). A gp34-Fc fusion protein was used as a negative control. The recombinant proteins were coated overnight at a concentration of 80 nM in 100 mM NaHCO₃ at pH 8.8.
(§6) Detection of scFv bound to the recombinant proteins was carried out by using an anti-c-myc-HRP conjugate (10 μg/ml). […] Binding to the recombinant CD16B was tested by directly staining with anti-His-HRP (1 μg/mL) and binding to the Fc-Fusion proteins was tested by an anti-human IgG-HRP conjugate (0.15 μg/mL).

Streptavidin = biological target: T5, Streptavidin (UniProt P22629 37-163, limits assumed); experiment: ELISA on coated streptavidin; periplasmic extract, anti-Penta His-HRP
T5 construct: also called streptavidin alone

[6] = biological target: T6, human CD16B (NA-2 allele) on stably transfected HEK-293 cells (293/CD16B) (human, UniProt O75015 17-200); experiment: flow cytometry on 293/CD16B cells; scFv, anti-hexa His MAb 13/45/31-2, FITC goat anti-mouse IgG; MFI minus secondary reagents alone
T6 construct: whole, on cells
Method: as §2, §3

NKp46-Fc [7] = biological target: T7, NKp46-Fc (UniProt O76036 22-258, limits assumed); experiment: Western blot on NKp46-Fc
T7 construct: Negative control protein; also called NKp46-Fc control protein; not shown: Fc part, not described
Method: For further characterization all of the anti-CD16A scFv were tested for binding in Western Blot on recombinant CD16A-Fc and NKp46-Fc.
The proteins were transferred on a nitrocellulose membrane by electroblotting. After staining with Ponceau S, the membrane was cut into strips of 5 mm width. Each nitrocellulose strip was individually incubated with scFv (4 μg/ml) in PBS, 0.1% tween, 2% skimmed milk. Detection was carried out with the anti-Penta His HRP-conjugate (1 μg/mL) using diaminobenzidine (DAB) as a peroxidase substrate. […] As an additional positive control, a goat anti-human IgG HRP-conjugate (0.16 μg/mL) was used for detection of the Fc portion of the fusion proteins.

[8] = biological target: T1, human CD16A-Fc^48R/158V fusion protein; experiment: SPR, BIAcore 2000, CD16A-Fc immobilized on CM5, 1:1 Langmuir
Method: as §1

[9] = biological target: T1, human CD16A-Fc^48R/158V fusion protein; experiment: SPR, BIAcore 2000, antigen immobilized
Method: as §1

[10] = biological target: T1, human CD16A-Fc^48R/158V fusion protein; experiment: SPR, BIAcore 2000, antigen immobilized, koff/kon
Method: as §1

[11] = biological target: T4, commercially available recombinant …; experiment: ELISA on recombinant CD16B coated at 80 nM; scFv detected with anti-c-Myc-HRP (10 µg/ml)
Method: as §4, §5, §6

CD16B-Fc^NA2 = biological target: T8, CD16B-Fc^NA2 (human, UniProt O75015 17-200); experiment: ELISA on 200 ng coated antigen; scFv, anti-His-HRP (1 µg/ml)
T8 construct: extracellular domain; not shown: Fc region carried by the pSEC plasmid
Method: (§7) FIG. 7: ELISA on different CD16 isoforms. […] An anti-NKp46 scFv used as a primary antibody acted as a negative control.
(§8) Detection of scFv bound to the recombinant proteins was carried out using an anti-His-HRP conjugate (1 μg/ml).

CD16B-Fc^SH = biological target: T9, CD16B-Fc^SH (human, UniProt O75015 17-200); experiment: as above
T9 construct: extracellular domain; not shown: Fc region carried by the pSEC plasmid
Method: as §7, §8

NKp46-Fc [12] = biological target: T7, NKp46-Fc; experiment: as above
Method: as §7, §8

CD16B-Fc^NA1 = biological target: T10, CD16B-Fc^NA1 (human, UniProt O75015 17-200); experiment: as above
T10 construct: extracellular domain; not shown: Fc region carried by the pSEC plasmid
Method: as §7, §8

[13] = biological target: T1, human CD16A-Fc^48R/158V fusion protein; experiment: SPR, kinetic and steady state analysis
Method: as §1

[14] = biological target: T1, human CD16A-Fc^48R/158V fusion protein; experiment: surface plasmon resonance

T1 sequence (P08637 17-208 L66R/F176V limits assumed): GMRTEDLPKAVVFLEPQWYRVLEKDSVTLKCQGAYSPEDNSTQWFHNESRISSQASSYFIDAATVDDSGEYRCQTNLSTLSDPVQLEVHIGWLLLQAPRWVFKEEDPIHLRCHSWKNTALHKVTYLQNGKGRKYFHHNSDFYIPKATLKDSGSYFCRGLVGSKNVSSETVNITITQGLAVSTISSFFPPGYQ
T2 sequence (O76036 other isoform, or with tags, fused parts or gaps limits assumed): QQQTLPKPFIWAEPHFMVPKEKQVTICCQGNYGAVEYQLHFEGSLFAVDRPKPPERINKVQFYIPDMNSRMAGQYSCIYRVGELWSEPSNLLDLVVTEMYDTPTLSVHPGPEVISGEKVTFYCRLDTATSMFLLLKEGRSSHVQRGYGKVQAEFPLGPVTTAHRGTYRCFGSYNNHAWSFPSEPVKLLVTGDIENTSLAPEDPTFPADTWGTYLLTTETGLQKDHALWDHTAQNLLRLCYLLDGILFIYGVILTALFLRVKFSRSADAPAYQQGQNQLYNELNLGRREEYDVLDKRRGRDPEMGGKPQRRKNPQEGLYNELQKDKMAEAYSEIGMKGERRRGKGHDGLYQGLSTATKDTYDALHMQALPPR
T3 sequence (O75015 17-200): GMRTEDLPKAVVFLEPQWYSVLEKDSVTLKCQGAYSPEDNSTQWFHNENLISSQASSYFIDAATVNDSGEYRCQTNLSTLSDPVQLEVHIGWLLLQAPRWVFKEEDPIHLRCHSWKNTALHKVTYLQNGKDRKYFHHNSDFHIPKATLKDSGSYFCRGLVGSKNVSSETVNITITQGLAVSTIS
T7 sequence (O76036 22-258 limits assumed): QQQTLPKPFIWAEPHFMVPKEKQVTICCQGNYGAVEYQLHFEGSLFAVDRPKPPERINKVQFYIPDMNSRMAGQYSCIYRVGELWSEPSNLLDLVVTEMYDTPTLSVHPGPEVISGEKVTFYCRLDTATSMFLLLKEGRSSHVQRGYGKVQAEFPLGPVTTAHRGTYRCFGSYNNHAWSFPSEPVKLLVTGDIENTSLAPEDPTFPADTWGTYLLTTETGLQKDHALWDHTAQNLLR
T4 sequence (O75015 17-200 N65S limits assumed): as the sequence (O75015 17-200) above, with N49S counted along it
T6 sequence (O75015 17-200 N65S): as the sequence (O75015 17-200) above, with N49S counted along it
T5 sequence (P22629 37-163 limits assumed): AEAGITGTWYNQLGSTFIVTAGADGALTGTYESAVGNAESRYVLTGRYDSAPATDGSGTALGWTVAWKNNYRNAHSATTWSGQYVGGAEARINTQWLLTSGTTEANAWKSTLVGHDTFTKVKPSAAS
T9 sequence (O75015 17-200 N65S/A78D): as the sequence (O75015 17-200) above, with N49S, A62D counted along it
T10 sequence (O75015 other isoform, or with tags, fused parts or gaps): as the sequence (O75015 17-200) above, with S20R, N66D, I90V counted along it
T8 sequence (O75015 17-200 N65S): as the sequence (O75015 17-200) above, with N49S counted along it

Binder | Kd [1] | binding result [2] | binding result [3] | Kd [4] | binding result [5] | binding result (Streptavidin) | binding result [6] | binding result (NKp46-Fc [7]) | koff [8] | kon [8] | koff [9] | kon [9] | Kd [10] | binding result [11] | binding result (CD16B-Fc^NA2) | binding result (CD16B-Fc^SH) | binding result (NKp46-Fc [12]) | binding result (CD16B-Fc^NA1) | fold improvement of affinity over parental clone 50NI [13] | Kd [14]
B1 | 1230 nM | no binding (tested: 50 µg/mL) | no binding (tested: 50 µg/mL) | 2560 nM | no binding | no binding | no binding (tested: 50 µg/mL) | no binding (tested: 4 µg/ml) | 0.0217 s⁻¹ | 17600 M⁻¹ s⁻¹ |  |  |  |  |  |  |  |  |  | 
B2 | 113 nM | no binding (tested: 50 µg/mL) | no binding (tested: 50 µg/mL) | 203 nM |  |  | no binding (tested: 50 µg/mL) |  | 0.0063 s⁻¹ | 56000 M⁻¹ s⁻¹ | 0.00342 s⁻¹ | 55400 M⁻¹ s⁻¹ | 61.7 nM | no binding (tested: not given) | no binding (tested: 4 µg/ml) | no binding (tested: 4 µg/ml) | no binding (tested: 4 µg/ml) | no binding (tested: 4 µg/ml) | > 20 fold | ~50 nM
